Laboratory results published in patent EP4685489A2 (Roche Diagnostics GmbH, dated 2026).

Legend:
[1] = biological target: T1, recombinant N-terminal fragment (residues 1-330) of human cardiac-type Myosin-binding protein C3 with … (human, UniProt Q14896 1-330); assay: Elecsys ECLIA sandwich; row antibody biotinylated (capture), second antibody ruthenylated 13F11 (detection); 2.7 pg/mL MYBPC3
T1 construct: expressed in HEK293-F cells and purified as a monomer; also called MYBPC3; N-terminal MyBPC-Fragment (1-330)

[2] = biological target: T1, recombinant N-terminal fragment …; assay: sandwich ELISA, streptavidin MTP; row antibody biotinylated (capture), second antibody DIG-labelled 7B5 (detection); 2.7 pg/mL MYBPC3
[3] = biological target: T1, recombinant N-terminal fragment …; assay: Elecsys ECLIA sandwich; row antibody biotinylated (capture), second antibody ruthenylated 4.1.1 (detection); 0.9 pg/mL MYBPC3
[4] = biological target: T1, recombinant N-terminal fragment …; assay: Elecsys ECLIA sandwich; row antibody biotinylated (capture), second antibody ruthenylated 13F11 (detection); 0.9 pg/mL MYBPC3
[5] = biological target: T1, recombinant N-terminal fragment …; assay: SPR (Biacore) at 37°C, antibody captured via anti-rabbit Fc, MYBPC3 0.4-90 nM, Langmuir 1:1 fit over 2 series
[6] = biological target: T1, recombinant N-terminal fragment …; assay: Elecsys ECLIA sandwich; row antibody biotinylated (capture), second antibody ruthenylated 4.1.1 (detection); 2.7 pg/mL MYBPC3
[7] = biological target: T1, recombinant N-terminal fragment …; assay: sandwich ELISA, streptavidin MTP; row antibody biotinylated (capture), second antibody DIG-labelled 4.1.1 (detection); 2.7 pg/mL MYBPC3
[8] = biological target: T1, recombinant N-terminal fragment …; assay: Elecsys ECLIA sandwich; row antibody biotinylated (capture), second antibody ruthenylated 25H1 (detection); 0.9 pg/mL MYBPC3
[9] = biological target: T1, recombinant N-terminal fragment …; assay: sandwich ELISA, streptavidin MTP; row antibody biotinylated (capture), second antibody DIG-labelled 5B8 (detection); 2.7 pg/mL MYBPC3
[10] = biological target: T1, recombinant N-terminal fragment …; assay: Elecsys ECLIA sandwich; row antibody biotinylated (capture), second antibody ruthenylated 25H1 (detection); 2.7 pg/mL MYBPC3
[11] = biological target: T1, recombinant N-terminal fragment …; assay: sandwich ELISA, streptavidin MTP; row antibody biotinylated (capture), second antibody DIG-labelled 4.7.10 (detection); 2.7 pg/mL MYBPC3
[12] = biological target: T1, recombinant N-terminal fragment …; assay: Elecsys ECLIA sandwich; row antibody biotinylated (capture), second antibody ruthenylated 5B8 (detection); 0.9 pg/mL MYBPC3
[13] = biological target: T1, recombinant N-terminal fragment …; assay: Elecsys ECLIA sandwich; row antibody biotinylated (capture), second antibody ruthenylated 7B5 (detection); 0.9 pg/mL MYBPC3
[14] = biological target: T1, recombinant N-terminal fragment …; assay: Elecsys ECLIA sandwich; row antibody biotinylated (capture), second antibody ruthenylated 11F2 (detection); 0.9 pg/mL MYBPC3
[15] = biological target: T1, recombinant N-terminal fragment …; assay: Elecsys ECLIA sandwich; row antibody biotinylated (capture), second antibody ruthenylated 11F2 (detection); 2.7 pg/mL MYBPC3
[16] = biological target: T1, recombinant N-terminal fragment …; assay: Elecsys ECLIA sandwich; row antibody biotinylated (capture), second antibody ruthenylated 7D5 (detection); 2.7 pg/mL MYBPC3
[17] = biological target: T1, recombinant N-terminal fragment …; assay: Elecsys ECLIA sandwich; row antibody biotinylated (capture), second antibody ruthenylated 8H1 (detection); 0.9 pg/mL MYBPC3
[18] = biological target: T1, recombinant N-terminal fragment …; assay: Elecsys ECLIA sandwich; row antibody biotinylated (capture), second antibody ruthenylated 8H1 (detection); 2.7 pg/mL MYBPC3
[19] = biological target: T1, recombinant N-terminal fragment …; assay: sandwich ELISA, streptavidin MTP; row antibody biotinylated (capture), second antibody DIG-labelled 4.6.6 (detection); 1 ng/mL MYBPC3
[20] = biological target: T1, recombinant N-terminal fragment …; assay: Elecsys ECLIA sandwich; row antibody biotinylated (capture), second antibody ruthenylated 7B5 (detection); 2.7 pg/mL MYBPC3
[21] = biological target: T1, recombinant N-terminal fragment …; assay: sandwich ELISA, streptavidin MTP; row antibody biotinylated (capture), second antibody DIG-labelled 4.7.10 (detection); 1 ng/mL MYBPC3
[22] = biological target: T1, recombinant N-terminal fragment …; assay: SPR (Biacore) at 37°C, antibody captured via anti-mouse Fc, MYBPC3 0.4-90 nM, Langmuir 1:1 fit over 2 series
[23] = biological target: T1, recombinant N-terminal fragment …; assay: Elecsys ECLIA sandwich; row antibody biotinylated (capture), second antibody ruthenylated 7D5 (detection); 0.9 pg/mL MYBPC3
[24] = biological target: T1, recombinant N-terminal fragment …; assay: sandwich ELISA, streptavidin MTP; row antibody biotinylated (capture), second antibody DIG-labelled 4.1.1 (detection); 1 ng/mL MYBPC3
[25] = biological target: T1, recombinant N-terminal fragment …; assay: Elecsys ECLIA sandwich; row antibody biotinylated (capture), second antibody ruthenylated 5B8 (detection); 2.7 pg/mL MYBPC3

T1 sequence (Q14896 other isoform, or with tags, fused parts or gaps limits assumed): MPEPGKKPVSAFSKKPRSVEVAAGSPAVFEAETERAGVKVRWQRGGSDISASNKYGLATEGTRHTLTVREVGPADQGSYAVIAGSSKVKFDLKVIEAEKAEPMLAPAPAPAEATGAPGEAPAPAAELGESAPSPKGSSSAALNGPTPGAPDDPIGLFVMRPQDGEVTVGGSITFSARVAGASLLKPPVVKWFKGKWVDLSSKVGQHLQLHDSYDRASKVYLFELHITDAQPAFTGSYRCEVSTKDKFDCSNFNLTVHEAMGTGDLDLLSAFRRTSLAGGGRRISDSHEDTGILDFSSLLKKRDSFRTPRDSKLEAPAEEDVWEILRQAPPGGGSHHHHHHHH

B1: monoclonal antibody 7B5 (antibody, V domains shown)
VH: QEQLEESGGGLVKPGGTLTLTCKVSGFDFSSGYDMCWVRQAPGKGLESIACIGSSSASTWYANWVNGRFTVSRSTSLNTVDLKMTSLTVADTATYFCARESSTEYYYNLWGPGTLVTVSS
VL: DIVMTQTPASVEAAVGGTVTIKCQASQSIGNALAWYQQKPGQPPKLLIYSTSYLPSGVPSRFKGGGSGAEYTLTISDLECADAATYYCQSYYVSTSSSDRSSFGGGTEVVVK
notes: Rabbit B-cell derived monoclonal IgG, expressed recombinantly in HEK293 cells; Biotinylated, DIG-labelled or ruthenylated in the sandwich assays; also called mAB 7B5; MAK<MYPBC3<rK-7B5-IgG(SPA)
ratio (2.7 pg/mL) /blank [1]: 1.02
Ratio (Δ OD 2.7 pg/mL/blank) [2]: 0.98
ratio (0.9 pg/mL) / blank [3]: 1.18
ratio (0.9 pg/mL) / blank [4]: 1.01
Kd [5]: 0.19 nM
koff [5]: 0.00051 s⁻¹
kon [5]: 2.7e+06 M⁻¹ s⁻¹
ratio (2.7 pg/mL) /blank [6]: 1.4
Ratio (Δ OD 2.7 pg/mL/blank) [7]: 3.07
ratio (0.9 pg/mL) / blank [8]: 1.01
Ratio (Δ OD 2.7 pg/mL/blank) [9]: 1.01
ratio (2.7 pg/mL) /blank [10]: 1.03
Ratio (Δ OD 2.7 pg/mL/blank) [11]: 0.98

B2: monoclonal antibody 4.1.1 (antibody, V domains shown)
VH: QVQLKESGPGLVAPSQSLSITCTVSGFSLTGYGVNWVRQPPGKGLEWLGMIWGDGSTDYNSVYKSRLSISKDNSKSQVFLKMNSLQTDDTARYYCARRDTGGASMDYWGQGTSVTVSS
VL: DILMTQSPAILSVSPGERVSFSCRASQNIGTNMHWYQQRTNGSPRLLIRFASESFSGIPSRFSGTGSGTDFTLRINSVESEDIADYYCQQSYNWPFTFGAGTKLELK
notes: Mouse hybridoma monoclonal IgG; Biotinylated, DIG-labelled or ruthenylated in the sandwich assays; also called M-4.1.1; M.4.1.1
ratio (2.7 pg/mL) /blank [1]: 1.32
ratio (0.9 pg/mL) / blank [12]: 0.99
Ratio (Δ OD 2.7 pg/mL/blank) [2]: 1.43
ratio (0.9 pg/mL) / blank [13]: 1.11
ratio (0.9 pg/mL) / blank [14]: 1.01
ratio (2.7 pg/mL) /blank [15]: 1
ratio (0.9 pg/mL) / blank [4]: 1.14
ratio (2.7 pg/mL) /blank [16]: 1.09
ratio (0.9 pg/mL) / blank [17]: 1.02
ratio (2.7 pg/mL) /blank [18]: 1.01
Ratio (Δ OD 1 ng/mL MYBPC3) / blank [19]: 3.39
ratio (0.9 pg/mL) / blank [8]: 1.01
ratio (2.7 pg/mL) /blank [20]: 1.32
Ratio (Δ OD 1 ng/mL MYBPC3) / blank [21]: 23.6
Kd [22]: 0.056 nM
koff [22]: 0.00012 s⁻¹
kon [22]: 2.1e+06 M⁻¹ s⁻¹
ratio (0.9 pg/mL) / blank [23]: 1.02
Ratio (Δ OD 2.7 pg/mL/blank) [9]: 0.99
Ratio (Δ OD 1 ng/mL MYBPC3) / blank [24]: 1.09
ratio (2.7 pg/mL) /blank [25]: 1
ratio (2.7 pg/mL) /blank [10]: 1
